Assay in all cases: peptide SPOT array, c-Myc-tagged receptor at 1 uM or 100 nM, anti-c-Myc-Cy3
One assay has as its target Bcl-2, P10415.
In another assay the target is T1, Mcl-1, Q07820.
T1 chain: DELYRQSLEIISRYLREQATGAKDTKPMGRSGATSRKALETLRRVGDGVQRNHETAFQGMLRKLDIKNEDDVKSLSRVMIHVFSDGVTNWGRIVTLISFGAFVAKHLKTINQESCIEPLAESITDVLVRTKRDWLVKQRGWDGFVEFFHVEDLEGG

In the next assay the target is T2, Bfl-1, Q16548.
T2 chain: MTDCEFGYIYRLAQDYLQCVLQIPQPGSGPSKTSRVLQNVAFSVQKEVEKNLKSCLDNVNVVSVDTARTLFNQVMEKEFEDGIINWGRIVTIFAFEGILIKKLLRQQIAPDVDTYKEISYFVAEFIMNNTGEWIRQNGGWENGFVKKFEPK

The target in a further assay is T3, Bcl-w, Q92843.
T3 chain: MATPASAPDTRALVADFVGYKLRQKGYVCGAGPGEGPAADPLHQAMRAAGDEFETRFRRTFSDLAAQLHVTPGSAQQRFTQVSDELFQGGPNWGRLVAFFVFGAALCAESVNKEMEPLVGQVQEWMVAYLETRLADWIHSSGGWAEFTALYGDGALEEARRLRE

The target of a further assay is Bcl-xL, Q07817.
Bcl-xL, Q07817, sequence (Q07817 1-209): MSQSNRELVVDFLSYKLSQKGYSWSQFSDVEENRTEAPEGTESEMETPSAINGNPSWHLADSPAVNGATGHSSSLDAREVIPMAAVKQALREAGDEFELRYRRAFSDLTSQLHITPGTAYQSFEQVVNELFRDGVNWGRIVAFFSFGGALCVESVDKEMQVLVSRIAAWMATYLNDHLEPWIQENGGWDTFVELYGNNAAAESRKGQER

Bcl-2, P10415, sequence (P10415 1-217): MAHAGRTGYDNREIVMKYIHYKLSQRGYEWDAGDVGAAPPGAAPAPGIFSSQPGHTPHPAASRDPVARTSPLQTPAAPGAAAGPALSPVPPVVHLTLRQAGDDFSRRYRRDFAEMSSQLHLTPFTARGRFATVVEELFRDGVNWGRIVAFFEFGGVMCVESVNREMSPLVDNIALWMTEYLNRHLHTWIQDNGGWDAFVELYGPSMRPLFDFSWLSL

In the case of ASEAMLFEEALEKYGKDFNDIRQDFL, the SPOT signal as a fraction of Bim BH3's signal on the same receptor and array stood at 0.01 with Bcl-2, P10415; 0.03 in the assay with Mcl-1, Q07820; 0.01 with Bfl-1, Q16548; 0.02 with Bcl-w, Q92843; 0.03 in the assay with Bcl-xL, Q07817.

HRTSNVLTLSLKRFANFSGGKITKDV [USP36]: the SPOT signal as a fraction of Bim BH3's signal on the same receptor and array amounted to 0.2 with Bcl-2, P10415; 0.29 with Mcl-1, Q07820; 0.48 with Bfl-1, Q16548; 0.65 with Bcl-w, Q92843; 0.55 in the assay with Bcl-xL, Q07817.

Turning to KEVEDCVPVFLKHIAHDIYVCGKTIN [TUBGCP6], the SPOT signal as a fraction of Bim BH3's signal on the same receptor and array with Bcl-2, P10415 was found to be 0.01; with Mcl-1, Q07820, 0.02; with Bfl-1, Q16548, 0.03; with Bcl-w, Q92843, 0.02; in the assay with Bcl-xL, Q07817, 0.04.

As to NRKGEKNGKGLRHFSMKVCEKVQRKG [TFDP1], the SPOT signal as a fraction of Bim BH3's signal on the same receptor and array with Bcl-2, P10415 was 0.18; with Mcl-1, Q07820 it was 0.3; with Bfl-1, Q16548, 0.52; with Bcl-w, Q92843 it was 0.91; with Bcl-xL, Q07817, 0.54.

As for LFRRRDISSSLNSLADSNAREFEEES, the SPOT signal as a fraction of Bim BH3's signal on the same receptor and array was 0.02 with Bcl-2, P10415; 0.04 with Mcl-1, Q07820; 0.05 with Bfl-1, Q16548; 0.04 in the assay with Bcl-w, Q92843; 0.08 with Bcl-xL, Q07817.

On to DQEEACASRQLHSLASFSTVTARRNP [INCA1], for which the SPOT signal as a fraction of Bim BH3's signal on the same receptor and array came out at 0.08 with Bcl-2, P10415; 0.23 in the assay with Mcl-1, Q07820; 0.35 with Bfl-1, Q16548; 0.2 with Bcl-w, Q92843; 0.12 with Bcl-xL, Q07817.

For the molecule RQAFYLHTTKLTRIARRLCREILRPW [MTA1], the SPOT signal as a fraction of Bim BH3's signal on the same receptor and array with Bcl-2, P10415 was 0.23; with Mcl-1, Q07820, 0.41; in the assay with Bfl-1, Q16548, 0.72; in the assay with Bcl-w, Q92843, 0.89; in the assay with Bcl-xL, Q07817, 0.75.

Take ALTVKEMAQMLQSFGTELAETELPDD [MCF2]: the SPOT signal as a fraction of Bim BH3's signal on the same receptor and array turned out to be 0.01 with Bcl-2, P10415; 0.03 in the assay with Mcl-1, Q07820; 0.01 with Bfl-1, Q16548; 0.02 with Bcl-w, Q92843; 0.03 with Bcl-xL, Q07817.

Turning to DATHDEAVQALKRAGKEVLLEVKYMR [SNTB1], the SPOT signal as a fraction of Bim BH3's signal on the same receptor and array came out at 0.01 with Bcl-2, P10415; 0.02 with Mcl-1, Q07820; 0.03 with Bfl-1, Q16548; 0.02 with Bcl-w, Q92843; 0.04 with Bcl-xL, Q07817.

For the molecule LCKEKPTTALLDKVADNLAIQLAAVT [ILF3], the SPOT signal as a fraction of Bim BH3's signal on the same receptor and array with Bcl-2, P10415 amounted to 0.01; with Mcl-1, Q07820, 0.02; with Bfl-1, Q16548, 0.02; with Bcl-w, Q92843, 0.02; with Bcl-xL, Q07817 it was 0.03.

As to KFMKTIPGTALVEMGDEYAVERAVTH [HNRPLL], the SPOT signal as a fraction of Bim BH3's signal on the same receptor and array in the assay with Bcl-2, P10415 was 0.01; with Mcl-1, Q07820, 0.02; in the assay with Bfl-1, Q16548, 0.02; with Bcl-w, Q92843, 0.02; in the assay with Bcl-xL, Q07817, 0.04.

Consider GAQHSTMTSTLRRLGEDIFKGVVTKG [CCDC138], for which the SPOT signal as a fraction of Bim BH3's signal on the same receptor and array was 0.09 with Bcl-2, P10415; 0.43 in the assay with Mcl-1, Q07820; 0.45 in the assay with Bfl-1, Q16548; 0.64 in the assay with Bcl-w, Q92843; 0.12 with Bcl-xL, Q07817.

For the molecule FSVDLNASRSLSQVAMDLHEAVSMKL [DCST2], the SPOT signal as a fraction of Bim BH3's signal on the same receptor and array was 0.01 in the assay with Bcl-2, P10415; 0.06 with Mcl-1, Q07820; 0.08 in the assay with Bfl-1, Q16548; 0.03 with Bcl-w, Q92843; 0.03 with Bcl-xL, Q07817.

For AIPRAEVAELLVHSGDFLVRESQGKQ [FES], the SPOT signal as a fraction of Bim BH3's signal on the same receptor and array is 0.01 with Bcl-2, P10415; 0.03 in the assay with Mcl-1, Q07820; 0.02 in the assay with Bfl-1, Q16548; 0.02 with Bcl-w, Q92843; 0.03 in the assay with Bcl-xL, Q07817.

Turning to LKELDLSGNSLSHSAVKSLCKTLRRP [NLRP1], the SPOT signal as a fraction of Bim BH3's signal on the same receptor and array with Bcl-2, P10415 was determined as 0.09; in the assay with Mcl-1, Q07820, 0.13; with Bfl-1, Q16548, 0.42; with Bcl-w, Q92843 it was 0.41; with Bcl-xL, Q07817, 0.4.

Regarding IKEAADIIQKLHLIAQELPFDRFSEV [EXOC5], the SPOT signal as a fraction of Bim BH3's signal on the same receptor and array in the assay with Bcl-2, P10415 was determined as 0.01; with Mcl-1, Q07820 it was 0.09; with Bfl-1, Q16548, 0.03; with Bcl-w, Q92843 it was 0.21; in the assay with Bcl-xL, Q07817, 0.11.

Consider NKDGKSVSNRLRRLSDNCGGKVLSIT [KIAA0430], for which the SPOT signal as a fraction of Bim BH3's signal on the same receptor and array with Bcl-2, P10415 stood at 0.13; with Mcl-1, Q07820, 0.21; with Bfl-1, Q16548, 0.31; in the assay with Bcl-w, Q92843 it was 0.61; with Bcl-xL, Q07817, 0.56.

Consider EGMRTILVDWLVEVGEEYKLRAETLY [CCNA1], for which the SPOT signal as a fraction of Bim BH3's signal on the same receptor and array with Bcl-2, P10415 amounted to 0.01; with Mcl-1, Q07820 it was 0.05; in the assay with Bfl-1, Q16548, 0.02; in the assay with Bcl-w, Q92843, 0.02; in the assay with Bcl-xL, Q07817, 0.05.

In the case of MRPEIWIAQEDRRIGDEFNAYYARRV [BCL2L11], the SPOT signal as a fraction of Bim BH3's signal on the same receptor and array stood at 0.05 with Bcl-2, P10415; 0.05 in the assay with Mcl-1, Q07820; 0.05 with Bfl-1, Q16548; 0.06 with Bcl-w, Q92843; 0.09 with Bcl-xL, Q07817.

The record behind these values is publication PMC4072508, “Genome-Wide Prediction and Validation of Peptides That Bind Human Prosurvival Bcl-2 Proteins” (PLoS Computational Biology, 2014).
